Results on 17 molecules are retold here after patent US20180037644A1 (Pfizer, published 2018).

Residue numbers refer to the chain shown, from its start. Where two headings read alike, the source gives them in different places.

The target of assay [1] is T1, human IL-33 (mm2) (human, UniProt O95760 112-270).
T1 chain: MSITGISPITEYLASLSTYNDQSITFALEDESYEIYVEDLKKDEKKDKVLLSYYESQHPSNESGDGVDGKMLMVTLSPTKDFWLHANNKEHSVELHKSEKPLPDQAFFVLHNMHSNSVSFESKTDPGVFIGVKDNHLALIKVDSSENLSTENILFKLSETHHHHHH
Put plainly: cell-based or functional assay.

In assay [2] the target is T1, human IL-33 (mm2). Put plainly: cell-based or functional assay.
Assay [3] addresses T1, human IL-33 (mm2). Put plainly: BIAcore, IgG captured by anti-human Fc, 125 nM IL-33 (mm2). The protocol: Binding to human and cynomolgus monkey IL-33 was measured by surface plasmon resonance using a BIAcore T200 instrument. An anti-human Fc antibody was immobilized on a CM5 chip, and anti-IL-33 antibodies were captured.
Assay [4] deals with T1, human IL-33 (mm2). The assay is described as follows: cell-based or functional assay.
The target in assay [5] is T1, human IL-33 (mm2). Put plainly: cell-based or functional assay.

B1: 9B3 chimera/hu J (antibody, human IgG1, kappa)
heavy: EVQLVETGGGLVQPGRSLKLSCVASGFTFSNYWMYWIRQAPGMGLEWVSSINNDGGNTYYLDSVKGRFTISRNNAENTVYLQMNSLRSEDTATYYCAKGHYSYSSYSFSYWGQGTLVTVSSASTKGPSVFPLAPSSKSTSGGTAALGCLVKDYFPEPVTVSWNSGALTSGVHTFPAVLQSSGLYSLSSVVTVPSSSLGTQTYICNVNHKPSNTKVDKKVEPKSCDKTHTCPPCPAPEAAGAPSVFLFPPKPKDTLMISRTPEVTCVVVDVSHEDPEVKFNWYVDGVEVHNAKTKPREEQYNSTYRVVSVLTVLHQDWLNGKEYKCKVSNKALPAPIEKTISKAKGQPREPQVYTLPPSREEMTKNQVSLTCLVKGFYPSDIAVEWESNGQPENNYKTTPPVLDSDGSFFLYSKLTVDKSRWQQGNVFSCSVMHEALHNHYTQKSLSLSPGK
light: DIQMTQSPSVLSASVGDRVTLSCKASHNINKHLDWCQQKVGEAPKLLIYFTNNLQTGIPSRFSGSGSGTDYTLTISSLQPEDVATYFCFQYNSGWTFGQGTKVEIKRTVAAPSVFIFPPSDEQLKSGTASVVCLLNNFYPREAKVQWKVDNALQSGNSQESVTEQDSKDSTYSLSSTLTLSKADYEKHKVYACEVTHQGLSSPVTKSFNRGEC
notes: also called 9B3 chimera huJseg
Regarding B1, the figures for the “IC50, HEK293 ST2 NFkB” value in assay [1] and in assay [2] were 0.264 nM and 0.056 nM, respectively. In addition, the koff – broadly, a measure of how fast the partners let go of each other – in assay [3] was 0.000451 s⁻¹. For the same molecule, the “estimated IC50, HEK293 ST2 NFkB” value in assay [4] was 0.061 nM.

B2: 9B3-36 (antibody, human IgG1, kappa, V domains shown)
VH: EVQLVETGGGLVQPGRSLKLSCVASGFTFSNYWMYWIRQAPGMGLEWVSSINNDGGNTYYLDSVKGRFTISRNNAENTVYLQMNSLRSEDTATYYCAKGHYYYTSYSFAYWGQGTLVTVSS
VL: DIQMTQSPSVLSASVGDRVTLSCKASHNINKHLDWYQQKVGEAPKLLIYFTNNLQTGIPSRFSGSGSGTDYTLTISSLQPEDVATYFCFQYNSGWTFGQGTKVEIKR
As for B2, the koff in assay [3] is 0.000289 s⁻¹. In addition, in assay [4], the “estimated IC50, HEK293 ST2 NFkB” value was 0.251 nM.

B3: 9B3-162 (antibody, human IgG1, kappa, V domains shown)
VH: B2 VH with T104S, A109G
VL: B2 VL
The molecule B3 displayed a koff in assay [3] of 0.000642 s⁻¹. The “estimated IC50, HEK293 ST2 NFkB” value in assay [4] is 0.067 nM.

B4: 9B3-79 (antibody, human IgG1, kappa, V domains shown)
VH: B2 VH with K98R
VL: B2 VL
In turn, B4 came in with a koff in assay [3] of 0.000543 s⁻¹. Besides, the “estimated IC50, HEK293 ST2 NFkB” value in assay [4] was 0.063 nM.

B5: 9B3-15 (antibody, human IgG1, kappa, V domains shown)
VH: B2 VH with Y102S, T104S, Y110N
VL: B2 VL
In the case of B5, in assay [3], the koff was 0.000479 s⁻¹. Further, the “estimated IC50, HEK293 ST2 NFkB” value in assay [4] was 0.101 nM.

B6: 9B3-31v2 (antibody, human IgG1, kappa, V domains shown)
VH: B2 VH with T104S, Y110F
VL: B2 VL
For B6, the koff in assay [3] amounted to 0.000706 s⁻¹. In addition, the “estimated IC50, HEK293 ST2 NFkB” value in assay [4] was 0.202 nM.

B7: IL33-57 (antibody, human IgG1, kappa, V domains shown)
VH: EVQLVESGGGLVQPGGSLRLSCAASGFTFSSYWMYWVRQAPGKGLEWVASITPNGGNTYYPDSVKGRFTISRDNAKNSLYLQMNSLRAEDTAVYYCARGHYYYTDYSLGYWGQGTLVTVSS
VL: DIQMTQSPSSLSASVGDRVTITCKASQNINKHLDWYQQKPGKAPKLLIYFTNNLQTGVPSRFSGSGSGTDFTLTISSLQPEDFATYYCFQYNNGWTFGGGTKVEIKR
With B7, the “IC50, HEK293 ST2 NFkB” value in assay [5] worked out at 0.31 nM.

B8: IL33-80 (antibody, human IgG1, kappa, V domains shown)
VH: B7 VH with D105S
VL: B7 VL with T56D
For the molecule B8, the “IC50, HEK293 ST2 NFkB” value in assay [5] is 0.161 nM.

B9: IL33-74 (antibody, human IgG1, kappa, V domains shown)
VH: B7 VH with D105S
VL: B7 VL with K31D
In the case of B9, the “IC50, HEK293 ST2 NFkB” value in assay [5] came out at 0.174 nM.

B10: IL33-75 (antibody, human IgG1, kappa, V domains shown)
VH: B7 VH with D105S
VL: B7 VL with N30D
Consider B10, for which the “IC50, HEK293 ST2 NFkB” value in assay [5] was determined as 0.156 nM.

B11: IL33-81 (antibody, human IgG1, kappa, V domains shown)
VH: B7 VH with D105S
VL: B7 VL with T56E
In the case of B11, the “IC50, HEK293 ST2 NFkB” value in assay [5] was 0.168 nM.

B12: IL33-58 (antibody, human IgG1, kappa, V domains shown)
VH: B7 VH with N54L, D105S
VL: B7 VL
In the case of B12, in assay [5], the “IC50, HEK293 ST2 NFkB” value is 0.027 nM.

B13: IL33-62 (antibody, human IgG1, kappa, V domains shown)
VH: B7 VH with N57D
VL: B7 VL
Consider B13, for which the “IC50, HEK293 ST2 NFkB” value in assay [5] worked out at 0.885 nM.

B14: IL33-61 (antibody, human IgG1, kappa, V domains shown)
VH: B7 VH with N57E
VL: B7 VL
In the case of B14, the “IC50, HEK293 ST2 NFkB” value in assay [5] was found to be 0.595 nM.

B15: 7E8 chimera (antibody, human IgG1, kappa, V domains shown)
VH: EVQLVETGGGLVQPGRSLKLSCKTSGFTFSSYWMYWIRQAPGKGLEWVSSITPNGGNTYYPDSVKGRFTISRDNAENTIYLQMSSLRSEDTATYFCAKGHYYYTSYSLGYWGQGSLVTVSS
VL: EIQMTQSPSVLSASVGDRVTLSCKASQNINKHLDWYQQKLGEAPKLLIYFTNNLQTGIPSRFSGSGSGTDCTLTINSLQPGDVATYFCFQYNNGWTFGGGTKLELDR
For B15, in assay [2], the “IC50, HEK293 ST2 NFkB” value was 0.049 nM.

B16: 7E8H/9B3K (antibody, human IgG1, kappa, V domains shown)
VH: B15 VH
VL: B2 VL
As to B16, in assay [3], the koff came out at 0.000385 s⁻¹. The “estimated IC50, HEK293 ST2 NFkB” value in assay [4] is 0.015 nM.

B17: 30A1 chimera (antibody, human IgG1, kappa)
heavy: QVNLLQSGATLVKPGASMKMSCKASGYSFTDYWVSWVKQSHGKSLEWIGEIYPNSGANNFNKEFKDKATLTVDKSTSTAYMELTRLTSEDSAVYYCTRGPYYYSSQIIFAYWGQGTLVTVSSASTKGPSVFPLAPSSKSTSGGTAALGCLVKDYFPEPVTVSWNSGALTSGVHTFPAVLQSSGLYSLSSVVTVPSSSLGTQTYICNVNHKPSNTKVDKKVEPKSCDKTHTCPPCPAPEAAGAPSVFLFPPKPKDTLMISRTPEVTCVVVDVSHEDPEVKFNWYVDGVEVHNAKTKPREEQYNSTYRVVSVLTVLHQDWLNGKEYKCKVSNKALPAPIEKTISKAKGQPREPQVYTLPPSREEMTKNQVSLTCLVKGFYPSDIAVEWESNGQPENNYKTTPPVLDSDGSFFLYSKLTVDKSRWQQGNVFSCSVMHEALHNHYTQKSLSLSPGK
light: IIVMTQSPKSMSISVGDRVTMNCKASQNVGNNIAWYRQKPGQSPELLIYYASNRYTGVPDRFTGGGYGTDFTLTINSVQAEDAAFYYCQRIYNSPPTFGGGTKVELKRTVAAPSVFIFPPSDEQLKSGTASVVCLLNNFYPREAKVQWKVDNALQSGNSQESVTEQDSKDSTYSLSSTLTLSKADYEKHKVYACEVTHQGLSSPVTKSFNRGEC
Consider B17, for which the “IC50, HEK293 ST2 NFkB” value in assay [2] worked out at 0.27 nM.
